Experimental data reported in the DeepSol protein solubility set.

Assay: soluble on expression in E. coli; label from the status in PepcDB or PDB records

Soluble on expression in E. coli, not soluble:
MGSDKIHHHHHHLFAIRDEHLALDIVQDSMMKLVEKYSAKPLEELPLLFQRILQNTIRDFYRRQKTRSLWTTLFSAFIPSDHEKESEDFDLLETLQSDPSSSKVNDPHQQLEQSQLINLLERAIETLPARQREAFLLRYWEEMDVMETAKIMGCSEGSVKTHCSRATHTLAAMLKKHGIGL, MGSDKIHHHHHHLFSEAQMQKMGAESFASMNQEQKVSKDKALTTYVNCVAKRITDVLPGEAKPWELVLFESDQVNAFAVPGGFIGVYTGLLNVANTQDQLATVLGHEVAHVLAHHGNEQVSRAQMTGLGIQLADVALGAGGVSNKDLYMQALGLGAKVGYILPFGRTQESEADVMGLELMAKAGFDPSQSITLWQNMAKAGGAQGPELLSTHPSNERRIQDLQGLQGRVAPLYLAARETQLAKCIQPGKK, MGSDKIHHHHHHLGRRGTADDEILLTYCPTLFIVGAEGRRFNNEAITELRTSMISPSGLVVVGHSNDMILVPTSMLLRLGISQTVVFRMVLEKILDFLNLEPVRQQEFADLVPIELNNVFDLDSALLKSDKALSGLAFASSTHSASSSAAPSPVGASGRRATVTGAGSEDIAKRRKESIILSQQIAAPSISGPPPPAPSPRTEDRFLAFQNLVASTITTGDDMPRRASMGASPRVIERGDFRDHRPPPPPPLPILQNPVATPMSQQPPLPSPAPPPPRGPVDPASISLI, MGSDKIHHHHHHLIRGLYTAGAGMMLQMARQDVVANNLANVNTSGFKKNTAVAKAFPDMLISRLGECKEDKQGQLKVQSPVVIGRLGTGASISGIYTDFDNNNLKKTDSPCDLAITGAGYFVVQTPEGQRFTRCGEFKINSEGILTTNSGYPVLDSNDSPITIEGEFLIDEQGNINVDGENITRLKIVNFNDLQILERLGDNLLNSPEEPYVMERPEMLQGYIEQSNVNAVKEMVTLISVVRAYESLQKMVQAEDEIMGQAIDKVGSIN, MGSDKIHHHHHHLITIENSKFKAGIAERGAELQSLVNKADNYEYVWTGDKTFWNRHAPILFPSIGKSNQDQYRLGAKTYPMSQHGFARDYDFDVSDKSDSAVTFTQHQNAETLKKFPFEYTLAVTYMLTDGGLSVHYTVTNDDSKSMPFALGFHPAFNVGLKADGSFDDYDLTVEPLNSPLQRFGIGPVPFRNGDVEDIPGAEGNRLPLTHDLLDGGLVILANSEIAKATLASPHHDHSITLDISDFPYLTIWSPEHKKAPFIAVEPFDGLPDQAGEPTDWYTKLGNTTLSAGANKQLALKVELH, MGSDKIHHHHHHLKPNNNTNKGVDYWTNRISELEMPALCSTVKSLEKLAKDDVSSLALLGRSVMHDNALTSRILRVANSAIYHKGSSQISTVSRAAIVLGFDAVRNICITAKLLSSLLESKNLAPNVYQRLIKLMAKAFQAAMIARMMLSHHDEEMQEEAFIASLLYHIGESAFWSIGGEFTEELDLTLCQCETPAEERSATREALGASFLQLTQSIARNWGLGELLIQALNYPEDQRPDIRAIFLADKLCDILSQPVLDKLELAKRMTQAAIFTGLEEKEFLVRMQRCANATHKLAEVYGAKVLLDYLPDPKRIVAAEPDLPPIPLDMPVYQVNLNIQLAKLRELTGFAINKADFNQIMQTVLEGILEGVGVDRCGVLLLSPSRKQLQPRVILGRDADAIKQEFIIDLSDKRGLFHQAMEHKAPLWVDDPSSKNGRSSARSCKRGTCHGRAFYWRLCWLIAK, MGSDKIHHHHHHLKVLMYSISLAYMIRNLPYASLRAFEAVVRLGSFSAAAGDLGVSQSAVSQHVKSLEEWLGQELLVRGARASKGTRYGTLLAREIDRGLGGISEVCTQIRAASHSDTTVVISCLPGFAFTWLFPRLLRFDLAHPDLSISIATDTGGRPFNPADADIGIRYGHGEFPNLRVDHLMGERLFPVCAPQVAERLTDVASLGQHTLLQDEILNFGSANPSWEYWAEACGVHLPSRARTRRFGQSNLVLQAAIEGLGVALGREPLVLDALTDGRLVRPFTQNVKSPLSYWLVRRKQADDSPKVQEFLKWIKKEAETQPDIPASLNKFA, MGSDKIHHHHHHLLASGLEYSHHMSPDAMVEDITRLVEIWVTGWAGCRGYETRTEGRFPAALRADTTKEWEYFAHDPSDTEFAELAAKTAEAPARILTILTNDVARYTYLAQQHGLNVTSASQTMMIVDMETRDSEDPWLSDDDLKLTTFKKDGVHHAVVNAGESVAASGRVFVVGHTAVFDKIVTEPAYQRRGLGSFIMKALAAQAFEHDVENGLLLASLDGQKLYSHLGWTTLCHVLMLSSSNEGADLSVG, MGSDKIHHHHHHLLQRTFNIQHHSSLPLLSILSYFPTSLLKPGGRMAIVLPQGRFNNSSDKNIRDFIAERCRILAVVGLHGNTFKPHTGTKTSVLFVQKWNDDPKAGALCPRQDDYNIFFATMRKSGKDNSGDKIWRKISSSTASPPDDELSDLMPPSPVQRVVGVEGDFLRDNHEHLVVDHDLYNHEGKTEDGIAEAFIEFAKKENFSFFELSPSVTPFDAVKYQQLMDGLEAVEVSLNQALDHNLHFRFDSEFFKRIYFQVEAEIKALPHTRLSSTQPIIIHPTEIKREYVEDDSSGVLFFRTQNLRPLRVDLSNQVYISEEDAAKLSKNIIQKNDVLITITGANFGDTLIFKGEIEAIALSHVFILRNKKISQSFLAVFLNTFYGREQINKGMYGGV, MGSDKIHHHHHHLSITKPHTTVLLTGATGNWGRATLRELSSRSDRVTVLVLSLPGEKDKAVLSEFSAMENLDVVWGDLTDYATVATCVARADVVLHVGAVVSPLADEQPELATRVNVGSMRNIIRAVKAQPDPSRIRVVGVGSVAQTGNRNPPLHWGRVGDPIRVSRFDAYGQSKVTAERELVEAGLPTWVWLRQTGIFHPGMLEIRDPIMTHSPFAGVMEWVSAQDSARLLANLCEPDVPGELWGGVYNIGGGEGWRLSNWQLQTAIGQAVGVKDIRKWYDRNWFALKNFHGQWYTDSDRLHALVPFRQDTFESALARALATAPSSVRNAGKVPAWIVKHLVMKPLSRKPRGTMAAIRSGTDQEVSAHFGSLPEWRSIGDWSTFEPPAPSRTPSYLDHGYDENKPASEWSAIDYLEAAAFRGGRLLTEDVNPGLPSAPLMWSCGAGHEFAASPRLVLQAGHWCPACTADPAGYDRQAEHNKFLAQVIDA, MGSDKIHHHHHHLTTVLNASPQRFVNTPAVQRIAQRALRYLQSGFSIHLRGAAGVGKTTLAMHLADLLNQPIILLFGDDEFKTSDLIGNQLGYTRKKVVDNFIHSVIKVEDEVRQHWVDARLTLACKEGFTLVYDEFNRSHPEVNNVLLSVLEERLLVLPTNQHRAEYIRVHPQFRAILTSNPQEYCGVHATQDALMDRVITIDMPTPDELSQQEIVVHKTGIDSEKAEVIVRIVRTFWSRSGSGQGGGLRSCLMIAKICHEHEISVNPGDPSFQDICADILLSRTNQPLIEATRLLEEVLSEFYHRINTQSQPSEIIPNNQNQIVLEQRVPYEHEVYNYLCNSPGRRFSELAVELGIDRSQIVAALKSLREQGVLVQMQGNAESPSISQTVAFDSGHLINK, MGSDKIHHHHHHLTYDEIKKNKEVCECLKKGNENLGVLGFTDHSVAHCTMVAKRAAYILKKFGYSESDIEMVKIAGFMHDIGNVVNRSRHAEYGAILANEILKETDMSLKDRITVVSAIGHHDESTGGATDPISAALIIADKTDVRRNRVRNKAKENFDIHDRVNYAVTDAALKINMDKKVIALNLQIDTKICSMYEYFEIFLGRMMMCRGAAEVLGATFKLTANGSKVL, MGSDKIHHHHHHLYFLDNQLAQQIVDRTMAIIGHNINVMNSQGVILGSGEPHRIGSTHEGALLAISQNRTVELNSASAASLQGVKPGINLPLHYQGEIIGVIGITGEPEHLKAFGELLKMTAEMIVEQANSLDVAQWRARQQEEFILQLIKPEGRDLNHLKIWAQRLDIDLEMPRVAAVLRISDDAGDELANSQLKTVLHLLETPSRGNLIAMTSMTELVILKPAFLDGKAWSAEAESLRIDRLLKRLPSELNARLKISLGHYFPATMDINRSYQTALETLNFGQQLHPEQSKYLYEDHALLVMLSGLKHDWRGEQLLRPFQRLIDRDKNALLRKTLASYLGHFGDQQACAKALFIHRNTLRYRLDKIAQITKVDIQKLDGLLQLYLGQVLLSRGQDQG, MGSDKIHHHHHHLYNQPEVALEKYELTVSRIIKGRGAYICDTGIGQKLLVPYRGHEQRACTLRDTLAFIQRNGMDVEQISQTKEQCIISRDNCEDAYILKDYRAGRECSTDSIDDMRGGSRALAQLHNILEKYPLPSDIEVESLYEKAQRKCAQIVKLKNYILRRSKTNAFEHLFYECYERFLEQGQKSAEILCELENSKTSVPIYCHGAFNQHNVVYTQSGRWLPVNFETMHPGYPETDLAEYMRKMLEKNHWDTAVADAILDSYCSVRSLDDTSMRLLQALLLFPEKFCKLCNHYSNSRKSWVCDRDVDKLAQLIQLSGEREEYLHALQAIV, MGSDKIHHHHHHMAALENKIDFAIAFAVNNANPNGDPLNGNRPRTTSEGLGEVSDVALKRKIRNRLQDAGESVFVQSDDRSDDGAKSLSDRFNTYLKTLPKDEQKQKNVVFGKVCERWLDVRSFGQVFAFKKAKDTDEVSIGVRGPVSIQPAFSINPIAIDDVQITKSVNSETTDSGKKSSDTMGMKYRVSGRAVYVTYGSISPQLAERTGFSAEDAEKIKEALVTLFENDESSARPSGSMEVLDVVWFAHNCKGGQYSSAKVHRSVSVDADGTVNVDDASIPGLRYEVIEGR, MGSDKIHHHHHHMADGTSLSIDAKPTEEFSVREVFGIDTDMKVKGFAEPTDRVPAIDPTYKFDPDTTLAILAGYGYNRRVMVQGYHGTGKSTHIEQVGARLNWPTVRVNLDSHISRIDLIGKDAIKLRDGKQVTEFHEGILPWALRNPVAIVFDEYDAGRADVMFVIQRVLETDGKLTLMDQNEIITPNPCFRLFATANTVGLGDTTGLYHGTQQINQAQMDRWSLVATLNYLRHDAEVNIVLAKCPHYNTETGRKTMNQMVTVADLTRTAFMNGELSTVMSPRTVINWAQNAEIFRDVGYAFRVSFLNKCDELERQTVAEFYQRCFDEELPESAASMSLG, MGSDKIHHHHHHMADQMQWANALSTRHSLEAAVTDVVERAVSLLTAPADLGLVFISSAFTSEYSRLLPLLAEKLSVPVLIGCSGGGVIGTTVNGEIQELEAEPAISLTLAHLPGVKVQVFHVVAEELPDLDSSPDAWVDLIGVPASPTPQFILLSSSFASGINDLLQGLDFAYPGSVIVGGQASGGGMGGRVALFCNESDGEECQSLYREGTVGIALTGNIVLETIVAQGCRPIGKPLQVTKADRNIILELDEQVPLVVLRDLIASLSEHERTLAQHSLFVGVAMDEFKLALQQGDFLIRGILGVDPTAGAIAIGDRVRPGQRLQFHLRDAQASAEDLELLLQSYQTQRESEPSAVAALMFACLGRGEGLYGKPNFDSELFRRYLSDIPVGGFFCGGEIGPVGGRTFLHAYTSAFGICRQNQL, MGSDKIHHHHHHMADTFLFRVHRSQILPALNAVFEAVDPRSNIPILQNVLLSPNAERLRLSGTNMTVEVETSCDLLESASGNPLTLSGKALLDIVKSFSEVAEIEFSFDDLRGQVRVKSGRSRFLLATLHADQFPTIASLASGKSVAVDMPSLISAIARVKYALFDHKDRAYLSGIFIHPEEGENKIAVVAADGHNLAVVRFPCEAGTTFPGAIIPIKAIDAIRRLFGETKASAQVKISDEMIQICCHDVRLTSKLIDAVYPDYDVAIPKDNTSRIIVDAKHLINAVHRVCLVKKDDKRDTIKLVGSNGMLQVSMAATDGEEAVEEIAAEYNGPQIRIGFNGDYLKDALSSIKTTDVAINLLTESSPGLLTPTVGTDELYVVYPRVLPHD
